Test results: publication PMC9482650, “Quantitative fragmentomics allow affinity mapping of interactomes” (Nature Communications, 2022)

Experiments:
Assay in all cases: holdup assay
Parameters in all cases: key: below the threshold = too weak to quantify, mostly under pKd 3.1 to 4
Conditions in all cases: plain residues with an end cap or a label only (N-terminal biotin on a linker: ttds)
[1] = biological target: T1, SNTG1, Q9NSN8
T1 sequence (Q9NSN8 52-150, limits assumed, looked up): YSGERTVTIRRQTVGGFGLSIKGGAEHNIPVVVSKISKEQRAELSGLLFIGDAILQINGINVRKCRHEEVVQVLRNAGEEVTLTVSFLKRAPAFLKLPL

[2] = biological target: PICK1, Q9NRD5
PICK1, Q9NRD5, sequence (Q9NRD5 17-115): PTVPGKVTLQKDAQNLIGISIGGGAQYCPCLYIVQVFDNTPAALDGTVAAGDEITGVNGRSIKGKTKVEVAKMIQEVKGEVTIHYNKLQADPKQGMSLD

[3] = biological target: SNX27, Q96L92
[4] = biological target: SCRIB_3, Q14160
SCRIB_3, Q14160, sequence (Q14160 999-1103): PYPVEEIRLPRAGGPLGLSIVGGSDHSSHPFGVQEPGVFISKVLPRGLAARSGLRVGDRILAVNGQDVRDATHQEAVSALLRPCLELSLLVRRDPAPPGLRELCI

[5] = biological target: T2, DLG3_2, Q92796
T2 sequence (Q92796 221-321, limits assumed, looked up): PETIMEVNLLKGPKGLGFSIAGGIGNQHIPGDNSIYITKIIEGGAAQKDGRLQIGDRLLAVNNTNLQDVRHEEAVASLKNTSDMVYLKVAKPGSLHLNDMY

[6] = biological target: DLG1_3, Q12959
DLG1_3, Q12959, sequence (Q12959 457-571): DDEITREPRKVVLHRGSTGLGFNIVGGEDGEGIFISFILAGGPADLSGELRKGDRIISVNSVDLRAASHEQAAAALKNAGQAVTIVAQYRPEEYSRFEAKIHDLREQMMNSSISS

[7] = biological target: T3, RHPN1, Q8TCX5
T3 sequence (Q8TCX5 508-602, limits assumed, looked up): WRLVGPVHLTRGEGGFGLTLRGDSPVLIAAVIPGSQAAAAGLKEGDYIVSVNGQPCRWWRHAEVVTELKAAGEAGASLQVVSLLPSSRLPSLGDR

[8] = biological target: SCRIB_2, Q14160
SCRIB_2, Q14160, sequence (Q14160 857-960): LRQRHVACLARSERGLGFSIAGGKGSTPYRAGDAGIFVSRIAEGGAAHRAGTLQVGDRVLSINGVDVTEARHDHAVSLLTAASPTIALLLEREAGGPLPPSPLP

[9] = biological target: T4, LNX2_3, Q8N448
T4 sequence (Q8N448 463-564, limits assumed, looked up): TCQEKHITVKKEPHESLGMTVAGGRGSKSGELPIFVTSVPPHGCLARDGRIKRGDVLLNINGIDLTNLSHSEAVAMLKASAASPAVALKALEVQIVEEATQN

[10] = biological target: T5, MPP7, Q5T2T1
T5 sequence (Q5T2T1 134-230, limits assumed, looked up): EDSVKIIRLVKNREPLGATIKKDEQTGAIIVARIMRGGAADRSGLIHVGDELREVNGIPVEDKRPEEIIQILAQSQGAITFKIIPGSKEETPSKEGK

[11] = biological target: Inadl_5, Q8NI35
Inadl_5, Q8NI35, sequence (Q8NI35 673-780): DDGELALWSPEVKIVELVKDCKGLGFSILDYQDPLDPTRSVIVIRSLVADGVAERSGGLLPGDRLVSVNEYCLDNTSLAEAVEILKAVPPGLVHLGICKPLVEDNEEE

[12] = biological target: CASK, O14936
CASK, O14936, sequence (O14936 487-570): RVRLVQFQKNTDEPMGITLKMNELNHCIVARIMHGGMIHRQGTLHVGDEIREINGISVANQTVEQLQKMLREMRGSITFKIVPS

[13] = biological target: T6, SHANK1, Q9Y566
T6 sequence (Q9Y566 658-767, limits assumed, looked up): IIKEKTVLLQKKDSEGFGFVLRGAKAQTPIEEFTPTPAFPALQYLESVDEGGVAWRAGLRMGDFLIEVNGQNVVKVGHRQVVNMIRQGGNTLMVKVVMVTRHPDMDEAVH

[14] = biological target: SCRIB_1, Q14160
SCRIB_1, Q14160, sequence (Q14160 718-814): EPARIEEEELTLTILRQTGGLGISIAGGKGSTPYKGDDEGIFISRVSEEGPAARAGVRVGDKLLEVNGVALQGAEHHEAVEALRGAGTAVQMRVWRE

[15] = biological target: NHERF4_1, Q86UT5-2
NHERF4_1, Q86UT5-2, sequence (Q86UT5 other isoform, or with tags, fused parts or gaps): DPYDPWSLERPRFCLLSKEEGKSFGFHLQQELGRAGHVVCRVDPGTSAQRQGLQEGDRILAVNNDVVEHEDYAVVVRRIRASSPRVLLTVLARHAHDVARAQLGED

[16] = biological target: T7, PTPN13_1, Q12923
T7 sequence (Q12923 1088-1188, limits assumed, looked up): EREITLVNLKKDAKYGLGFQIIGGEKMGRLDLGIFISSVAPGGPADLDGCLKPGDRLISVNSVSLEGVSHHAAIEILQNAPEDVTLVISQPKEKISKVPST

[17] = biological target: T8, APBA3_1, O96018
T8 sequence (O96018 389-490, limits assumed, looked up): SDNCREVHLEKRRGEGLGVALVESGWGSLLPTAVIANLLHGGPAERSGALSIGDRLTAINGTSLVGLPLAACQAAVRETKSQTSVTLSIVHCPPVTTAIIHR

[18] = biological target: T9, MPDZ_5, O75970
T9 sequence (O75970 695-796, limits assumed, looked up): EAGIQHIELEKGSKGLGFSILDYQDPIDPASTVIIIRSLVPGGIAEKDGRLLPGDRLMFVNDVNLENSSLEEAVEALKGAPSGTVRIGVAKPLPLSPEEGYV

[19] = biological target: GORASP2, Q9H8Y8
[20] = biological target: T10, DLG3_1, Q92796
T10 sequence (Q92796 125-227, limits assumed, looked up): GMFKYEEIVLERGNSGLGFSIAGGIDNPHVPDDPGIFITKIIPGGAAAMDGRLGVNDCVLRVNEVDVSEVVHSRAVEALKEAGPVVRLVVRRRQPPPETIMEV

[21] = biological target: LNX1_1, Q8TBB1
LNX1_1, Q8TBB1, sequence (Q8TBB1 261-371): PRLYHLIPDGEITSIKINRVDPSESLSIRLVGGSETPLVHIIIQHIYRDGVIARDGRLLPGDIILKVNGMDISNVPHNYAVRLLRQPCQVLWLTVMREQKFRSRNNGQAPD

[22] = biological target: T11, PDZRN3_1, Q9UPQ7
T11 sequence (Q9UPQ7 244-349, limits assumed, looked up): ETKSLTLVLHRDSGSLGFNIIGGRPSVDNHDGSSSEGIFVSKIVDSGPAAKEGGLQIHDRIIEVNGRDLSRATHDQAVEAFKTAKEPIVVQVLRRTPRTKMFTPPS

[23] = biological target: TJP2_1, Q9UDY2
TJP2_1, Q9UDY2, sequence (Q9UDY2 24-128): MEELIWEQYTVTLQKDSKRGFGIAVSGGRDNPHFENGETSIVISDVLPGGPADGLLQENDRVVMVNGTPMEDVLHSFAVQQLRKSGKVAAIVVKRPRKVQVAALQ

[24] = biological target: FRMPD2_3, Q68DX3
FRMPD2_3, Q68DX3, sequence (Q68DX3 1073-1166): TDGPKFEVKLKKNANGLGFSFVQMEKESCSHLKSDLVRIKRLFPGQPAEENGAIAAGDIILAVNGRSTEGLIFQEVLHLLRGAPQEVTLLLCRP

[25] = biological target: DLG4_1, P78352
DLG4_1, P78352, sequence (P78352 62-152): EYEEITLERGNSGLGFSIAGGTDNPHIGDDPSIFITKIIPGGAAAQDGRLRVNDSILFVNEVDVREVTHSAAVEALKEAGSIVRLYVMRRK

Binder: STLTIFETAL [ABCC4, O15439]
- pKd [1]: 4.89
- pKd [2]: below the threshold
- pKd [3]: 5.85
- pKd [4]: 5.59
- pKd [5]: 4.35
- pKd [6]: 4.38
- pKd [7]: 4.87
- pKd [8]: 4.92
- pKd [9]: below the threshold
- pKd [10]: 3.56
- pKd [11]: below the threshold
- pKd [12]: below the threshold
- pKd [13]: 5.1
- pKd [14]: 6.07
- pKd [15]: 4.61
- pKd [16]: below the threshold
- pKd [17]: below the threshold
- pKd [18]: below the threshold
- pKd [19]: 3.82
- pKd [20]: 3.84
- pKd [21]: 3.59
- pKd [22]: 5.46
- pKd [23]: below the threshold
- pKd [24]: below the threshold
- pKd [25]: 4.23
